This data set can be described thus: self-splicing fitness, log relative to wild type (ln ratio); higher = more splicing; Tetrahymena group I intron in knt gene, E. coli kanamycin selection, DiMSum; sequences stand for … in CUCUCU…GGAGGGAAAAGUUAUCAGGCAUGCACCUGGUAGCUAGUCUUUAAACCAAUAGAUUGCAUCGGUUUAAAAGGCAAGACCGUCAAAUUGCGGGAAAGGGGUCAACAGCCGUUCAGUACCAAGUCUCAGGGGAAACUUUGAGAUGGCCUUGCAAAGGGUAUGGUAAUAAGCUGACGGACAUGGUCCUAACCACGCAGCCAAGUCCUAAGUCAACAGAUCUUCUGUUGAUAUGGAUGCAGUUCACAGACUAAAUGUCGGUCGGGGAAGAUGUAUUCUUCUCAUAAGAUAUAGUCGGACCUCUCCUUAAUGGGAGCUAGCGGAUGAAGUGAUGCAACACUGGAGCCGCUGGGAACUAAUUUGUAUGCGAAAGUAUAUUGAUUAGUUUUGGAGUACUCGUGGUCG
A digest of the protocol:
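Pooled colonies went to amplicon sequencing on an Illumina HiSeq 2500 after six replicate transformations. The plates were LB agar with 100 μg/mL carbenicillin, 50 μM IPTG and 0.2% rhamnose, with or without 25 μg/mL kanamycin, incubated overnight at 37°C or 30°C. The E. coli BL21(DE3) library had all eight P1ex-region intron nucleotides randomised, the intron placed in the knt kanamycin-resistance gene on pET-22b(+). DiMSum fitness is the error-weighted combination of replicate fold changes, kanamycin against none, normalised to wild type.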

± gives the uncertainty stated by the source.

Turning to AGUAAGCAAUAUUACGCUCU, the “self-splicing fitness (ln)” value is -1.96 ± 0.2 (30 °C) and -1.59 ± 0.27 (37 °C).

Consider UCGCAGCAAUAUUACGAUUU, for which the “self-splicing fitness (ln)” value reads like this: (30 °C) -3.55 ± 0.34; (37 °C) -2.24 ± 0.17.

As to UUUUAGCAAUAUUACGUACU, the “self-splicing fitness (ln)” value (37 °C) was determined as 0.399 ± 0.37.

UAGAAGCAAUAUUACGUGGA: the “self-splicing fitness (ln)” value was -2.1 ± 0.13 (30 °C) and -1.92 ± 0.16 (37 °C).

Take UAAAAGCAAUAUUACGCUGC: the “self-splicing fitness (ln)” value is, setting by setting: (30 °C) -2.51 ± 0.18; (37 °C) -1.35 ± 0.26.

Consider CUCUAGCAAUAUUACGGGCA, for which the “self-splicing fitness (ln)” value was -2.62 ± 0.23 (30 °C) and -2.29 ± 0.23 (37 °C).

Take GAUGAGCAAUAUUACGAAGC: the “self-splicing fitness (ln)” value runs as follows: (30 °C) -1.4 ± 0.41; (37 °C) 0.175 ± 0.21.

On to CAUUAGCAAUAUUACGACGA, for which the “self-splicing fitness (ln)” value was -2.25 ± 0.28 (30 °C) and -1.6 ± 0.2 (37 °C).

With UCCUAGCAAUAUUACGGAAC, the “self-splicing fitness (ln)” value (37 °C) was -2.69 ± 0.24.

Turning to AGUAAGCAAUAUUACGCAAC, for the setting “37 °C”, the “self-splicing fitness (ln)” value is -2.61 ± 0.38.

In the case of UUUUAGCAAUAUUACGGUUG, the “self-splicing fitness (ln)” value reads like this: (30 °C) -1.77 ± 0.15; (37 °C) -0.623 ± 0.23.

As to CAGAAGCAAUAUUACGCCGA, the “self-splicing fitness (ln)” value is -3.49 ± 0.41 (30 °C) and -2.75 ± 0.33 (37 °C).

For the sequence UUCUAGCAAUAUUACGUUCG, the “self-splicing fitness (ln)” value by setting is: (30 °C) -2.17 ± 0.14; (37 °C) -1.29 ± 0.16.

As for CCGAAGCAAUAUUACGCACC, the “self-splicing fitness (ln)” value (30 °C) was -2.46 ± 0.19 and the “self-splicing fitness (ln)” value (37 °C) is -2.25 ± 0.5.

Regarding CGAGAGCAAUAUUACGUCUA, for the setting “30 °C”, the “self-splicing fitness (ln)” value is -3.15 ± 0.36.

With CGUUAGCAAUAUUACGGCUA, where the note is “30 °C”, the “self-splicing fitness (ln)” value is -2.27 ± 0.37.

With GCUGAGCAAUAUUACGGAGG, the “self-splicing fitness (ln)” value by setting is: (30 °C) -3.67 ± 0.38; (37 °C) -1.14 ± 0.38.

In the case of CGGCAGCAAUAUUACGCUAG, the “self-splicing fitness (ln)” value runs as follows: (30 °C) -2.62 ± 0.17; (37 °C) -1.34 ± 0.18.

Regarding GGCGAGCAAUAUUACGUUUC, the “self-splicing fitness (ln)” value was -2.07 ± 0.23 (30 °C) and -1.99 ± 0.26 (37 °C).

Take AAUCAGCAAUAUUACGGGAA: the “self-splicing fitness (ln)” value runs as follows: (30 °C) -1.37 ± 0.097; (37 °C) 0.137 ± 0.078.

GGACAGCAAUAUUACGAGGU: the “self-splicing fitness (ln)” value runs as follows: (30 °C) -3.35 ± 0.21; (37 °C) -2.12 ± 0.14.

Consider UGUAAGCAAUAUUACGGGGC, for which the “self-splicing fitness (ln)” value (30 °C) is -3.63 ± 0.23 and the “self-splicing fitness (ln)” value (37 °C) was -3.24 ± 0.25.

CACGAGCAAUAUUACGCCCU: the “self-splicing fitness (ln)” value (30 °C) was -2.92 ± 0.3.

As to CGAUAGCAAUAUUACGUUUG, the “self-splicing fitness (ln)” value reads like this: (30 °C) -2.29 ± 0.081; (37 °C) -0.812 ± 0.081.

For UUUGAGCAAUAUUACGAGUG, the “self-splicing fitness (ln)” value is, setting by setting: (30 °C) -3.74 ± 0.18; (37 °C) -2.88 ± 0.2.

AAACAGCAAUAUUACGGACC: the “self-splicing fitness (ln)” value (30 °C) was -1.94 ± 0.078 and the “self-splicing fitness (ln)” value (37 °C) is -1.08 ± 0.095.

Turning to CAUGAGCAAUAUUACGCGUA, the “self-splicing fitness (ln)” value is -2.65 ± 0.24 (30 °C) and -2.45 ± 0.25 (37 °C).

With CAGGAGCAAUAUUACGCCAA, the “self-splicing fitness (ln)” value (30 °C) is -2.89 ± 0.37.

As for AUCUAGCAAUAUUACGGCCU, the “self-splicing fitness (ln)” value (30 °C) is -0.214 ± 0.1 and the “self-splicing fitness (ln)” value (37 °C) was -0.589 ± 0.14.

AAUAAGCAAUAUUACGAUGA: the “self-splicing fitness (ln)” value is -0.45 ± 0.1 (30 °C) and -0.0904 ± 0.11 (37 °C).

For the sequence GAUUAGCAAUAUUACGCCGU, the “self-splicing fitness (ln)” value (30 °C) was -1.61 ± 0.15 and the “self-splicing fitness (ln)” value (37 °C) is -0.986 ± 0.25.

Turning to CGAUAGCAAUAUUACGGGUG, the “self-splicing fitness (ln)” value runs as follows: (30 °C) -0.832 ± 0.069; (37 °C) -0.736 ± 0.074.

Take CGAAAGCAAUAUUACGUGAU: the “self-splicing fitness (ln)” value (30 °C) was -2.36 ± 0.11 and the “self-splicing fitness (ln)” value (37 °C) is -1.95 ± 0.14.

Regarding CAAAAGCAAUAUUACGGUCU, the “self-splicing fitness (ln)” value runs as follows: (30 °C) -3.38 ± 0.13; (37 °C) -1.1 ± 0.086.

As for UAUGAGCAAUAUUACGGGCC, the “self-splicing fitness (ln)” value (37 °C) is -3.14 ± 0.43.

Take UAUCAGCAAUAUUACGCCUU: the “self-splicing fitness (ln)” value is, setting by setting: (30 °C) -0.446 ± 0.24; (37 °C) -0.723 ± 0.23.

For the sequence UGACAGCAAUAUUACGCCGA, the “self-splicing fitness (ln)” value is -1.44 ± 0.17 (30 °C) and -0.0813 ± 0.17 (37 °C).

Regarding ACUAAGCAAUAUUACGUCUU, the “self-splicing fitness (ln)” value runs as follows: (30 °C) -1.5 ± 0.075; (37 °C) -1.14 ± 0.078.

On to AGAUAGCAAUAUUACGUCGC, for which the “self-splicing fitness (ln)” value is -3.24 ± 0.39 (30 °C) and -1.21 ± 0.23 (37 °C).

In the case of CGGCAGCAAUAUUACGCGAU, the “self-splicing fitness (ln)” value is -2.36 ± 0.19 (30 °C) and -1.4 ± 0.25 (37 °C).

(Values after the supplement of paper PMC7877785.)
